From the supplement of paper PMC12764529
± gives the half width of the 95% confidence interval.

Assay: folding stability dG unfold from chymotrypsin proteolysis; higher = more stable
Method in brief: (§1)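 Bayesian fitting of sequencing counts gave K50 for each design. Unfolding free energy followed by setting this against a sequence-predicted unfolded-state K50 and a shared folded-state K50, either per protease or with trypsin and chymotrypsin combined. The designs, under 80 residues and lacking cysteine, were digested in a PA-tagged cDNA display format at 11 threefold-diluted protease concentrations and without protease, and only those with AlphaFold2 dimer inter-PAE above 15 were kept.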

Sequence | folding stability dG unfold
SAGGSAMTVTTTTSVDPKTGIITTTVSVNGTPVFTGTSIVAPGGEVAETFGTYTYDPETGTVTVTGSAGGSA [r15_770_JUSTAS] | 1.17 ± 0.049 kcal/mol
APARPPDWVLVDVPVDPTSGLITVHAGDATVTVDLPDGRPAVFYFPRSVSPSDLLAWVVGKARELAEALRAS [r1_25_TrMRF] | 2.32 ± 0.19 kcal/mol
SGMMNNTTITVTDSEPLPDGSVLTNALTFTSSSAGISSPLDLSLSKTPVSSSTTYTNNGVAPASISLNSLSA [r9_1113_JUSTAS] | 0.611 ± 0.075 kcal/mol
SAMEITETSLDSSTLYTFPGRRITITTTPDSYTITITLPDGTPVTLNFPPTMPLDEVKKKVIETLLASSSAG [r14_618_JUSTAS] | 1.24 ± 0.16 kcal/mol
SAGGNWPMRIKIEDPGEEKTIPIPITKVEPNPPPGKLMIFWPDGWVLTFDPKNWRIKKIEPMPDPDEMSAGG [r13_636_TrROS] | 0.822 ± 0.13 kcal/mol
SAPFQIKEITVNPKDGEAEINFPLENLPPPWMIHIFDKDKGKTQWIPPGGEIEIRAPEGPVKIMIFWRDSAG [r14_134_TrROS] | 0.981 ± 0.45 kcal/mol
SAGGSAAEETYESDGLTVTVRTERGPDGTVRVVVEVRDRDGPLLATLPFTFKAREDEGLSFSVPFPSAGGSA [r15_950_TrMRF] | 1.26 ± 0.099 kcal/mol
SEKRMEVEIKIPITMVVPKEMFEPDPDNGRYRFPDNGKPIRPNQVHPMPIEIKGPMPPGDAQKLLKDLLKSA [r9_165_TrROS] | -0.119 ± 0.11 kcal/mol
SAGGSAGGSATLTIDELRELLEKLGIDVEELSEEEIAELLKKLYPNARVERNENGELTIHPSAGGSAGGSAG [r3_375_TrROS_Hall] | 2.77 ± 0.12 kcal/mol
SAGGSAGGSASKNGKELEIKIKVDIYPFPGWGIVRVDYEIEYPDGKEQKFDLWIPVPPGDASAGGSAGGSAG [r3_330_TrROS] | 1.64 ± 0.088 kcal/mol
SAGGKSISFGKKAGKEKMKEAIKKGLKNIKIVVFKDGKPEVIEVKADDLDKVFDNIPEDSIVVFEPESAGGS [r16_636_TrMRF] | 2.19 ± 0.038 kcal/mol
SAGATLLEERELPDGSRVEVYREPDKLIVRVFSPDREVETRVFPLPPEPPLPVVPVVVDPARGRFVRLSAGG [r19_254_JUSTAS] | -0.00636 ± 0.11 kcal/mol
SAPPDFKIKDVKVRRHPHKQEDGGKEKEFPMYHVNVRIEDPNGNKIPINFMMDDPEEMLRFARKLLKKLSAG [r14_36_TrROS] | 2.17 ± 0.2 kcal/mol
SAGGSAGGSAGPPNIKMEPETRTYVLPGGWAIRVSIMKIKPPDGKPLIMAMEEIIPPDDPSAGGSAGGSAGG [r17_312_TrROS] | 1.27 ± 0.23 kcal/mol
SAGGKIKLSPEALKALEEAIKKGDKNKTIFIELPDGSRIEVLPDGRIKVINKNGEEYELSEIKKIYPSAGGS [r16_664_TrROS_Hall] | 2.31 ± 0.12 kcal/mol
SAGGSAEIVIVESPQQVREAAEPENPDGPPVKVIPMTYEEAKNEIRELKKKGKPMKIVIVIDPGTPSAGGSA [r15_567_TrROS] | -0.167 ± 0.24 kcal/mol
SAGGSAGGSAAPEVTIKVTITYDPETNVLTIEAEATLPDGRKVRITARINKDGSIEIVSVEEVSAGGSAGGS [r12_1029_TrROS_Hall] | 4.61 ± 0.91 kcal/mol
SAGGSAGGSAGMEEIEIKFPENGKPLEIYRVPDGSAIIRNPGDGHYFQMDGNKIEIVGPLSAGGSAGGSAGG [r17_476_TrROS] | 0.353 ± 0.13 kcal/mol
SWIPVKEIAKYIAREFGMPKENLDNIEEVDPITVHPNPDGWVQVEATIRFRNPRNGKGHEMRIEIHVPKKSA [r9_230_TrROS] | 2.22 ± 0.11 kcal/mol
KGVVVGPDEPLVSDDGKLVVFPNAQITYDPKTGKPTIAFHVDPEALAQGDPEALKGLRDLAKELNIDELTPS [r1_438_TrMRF] | 1.03 ± 0.044 kcal/mol
SAGGSAPFKAELVSYDPETGVATFKLTLPDGSEVTVVATLDPDGVPHVKAYFPDGSVYDIEEILASSAGGSA [r15_832_TrMRF] | 3.893 ± 0.022 kcal/mol

Sequence | folding stability dG unfold
SAGGSLKIRTVLRLPSPDGTPYLVFSKEAVIHPVPNIVHINLLVPDKEITLTVPLNEVELLGSPEEVLSSAG [r5_15_TrMRF] | 2.81 ± 0.029 kcal/mol
SAGGSAGGSMGYLTEPDISVTRTPDGTVTVTTTNTTYDPSTGKKLSTTTTTTTVTLAPDEELLSAGGSAGGS [r12_1038_JUSTAS] | 0.628 ± 0.052 kcal/mol
SAGGSAGGMPPELSEEEVVRRAVERAVRELGVPLEELPPDWRVDARVERVGDEWLVEVDIELPASAGGSAGG [r6_740_TrMRF] | 1.68 ± 0.074 kcal/mol
SAGGSAGEAYSVVKASWNPETGTLNIVVKNPSTGEQKVYNIKPGNPVIDFPEGSVIESIEINPSPYSAGGSA [r15_959_TrMRF] | 1.03 ± 0.2 kcal/mol
SAGGSAGGSKTLVIEEDGELYKVRITNKNGKEIEIVMSADEIKKLPPNAKVEVEKIKLPEKKPSAGGSAGGS [r12_419_TrROS_Hall] | 1.52 ± 0.067 kcal/mol
SAGGSMVLLSEETIGDIKIKTYKDPNGGVITVIEKPGERTIEFIYPDGILTIEFPPDGTKKYSFDPIGSAGG [r13_246_JUSTAS] | 2.32 ± 0.071 kcal/mol
SAGGSAGGSASPRTYKYKFTIKYPDGSTSEYEIVDEEDKAKEKIKKEYGAEEIELEIEPEESAGGSAGGSAG [r3_220_JUSTAS] | 1.39 ± 0.19 kcal/mol
SAGGSAKRVITIGNDEDQERVQEEAEDNGVKKRPIPGDWDDFLSNLQDNFPEIDRIVIPNGREFEISAGGSA [r15_712_TrROS] | -1.27 ± 0.32 kcal/mol
SAGGSAGGSAGITIRDPDNGMWIQIEKTPDMFKVEIEMPGNGKKVEFTFPPGQSLDDLKISAGGSAGGSAGG [r11_772_TrROS] | 0.473 ± 0.085 kcal/mol
SAGGSMVVVPVEVTVPPEELEQYLEDLRAAYEKPGVKVEILPVEREPIRDPAGRVEEVRAKATIKIVPSAGG [r13_707_JUSTAS] | 0.522 ± 0.042 kcal/mol
SAGGSAGGSAEIKIEYTLAPDGTLYVKVEIPNPETGETLVLEGPFDSLEEAIEVAKELEKESAGGSAGGSAG [r3_174_TrMRF] | 2.77 ± 0.056 kcal/mol
SAEVEVELVEVNGKLFLVMKVKEKDENGKEREYLVVVEVEFDPETKKLTVKVYVFPSKEEAEEALKKLLSAG [r14_500_TrROS_Hall] | 5.26 ± 0.45 kcal/mol
SAGGSAGGSAGGKTIVLLDEETNELVTIEIDEETGEVKITVVRLKDGKLETKTETIKLPSAGGSAGGSAGGS [r10_756_TrROS_Hall] | 2.23 ± 0.21 kcal/mol
SAGGSAGGMDAEELAERIANHFQEHFPDMPIKVEVDPDHGWAKIEMRNPNNPGQKHEFEIPIDKSAGGSAGG [r6_478_TrROS] | 1.29 ± 0.031 kcal/mol
SAGGSAIPPDNVKEEREITDPDDDTKIKVWRYPNDGRYWVQVYNKKGEPKWKQLGPMPANQAEDLISAGGSA [r15_295_TrROS] | -0.31 ± 0.38 kcal/mol
SAGGIELKINIQMPAEEAVEFIRNFIEELGYEIEDIEVERDPENGMVSVPIEFEIKPVPPVDPEDQKSAGGS [r16_584_TrROS] | 0.166 ± 0.26 kcal/mol
SAGGSAGGSASKPYTITLPGNYRIEVYELPDGTYLARIYFPDKPGYYALALLTDNSIYIFPSAGGSAGGSAG [r3_170_TrMRF] | 3.691 ± 0.019 kcal/mol
SAGGSAGGSLIPADRTYKVTVTVEGDKVILTLTDPTSSVTYTLTLDIGPEKVPAGSTLTYTGSSAGGSAGGS [r12_525_JUSTAS] | 1.7 ± 0.19 kcal/mol
SAGGMPVPVKIEIIDDPGTLIITTPNGKPYTIPIPPNSIEEITIDPEKKVIKIKLKDGEIIIDVPDGSAGGS [r16_104_TrMRF] | 1.87 ± 0.038 kcal/mol
SAGGAPIEAAPDEEITLTFTLTVRFRGPDGAEGTATFRLTVPVKVEPVPPVPEPRVFRLPDGSEVTLGSAGG [r13_401_TrMRF] | 1.66 ± 0.12 kcal/mol
SAGGSAGGMVVYLQLPDKEATFFVPPSLSEEEVKERLKKALGDPDAPLTNLKIEEATPEELALESAGGSAGG [r6_122_JUSTAS] | 0.515 ± 0.2 kcal/mol

Assay: folding stability dG unfold from trypsin proteolysis; higher = more stable
Method in brief: as §1

Sequence | folding stability dG unfold
SAGGSAMTVTTTTSVDPKTGIITTTVSVNGTPVFTGTSIVAPGGEVAETFGTYTYDPETGTVTVTGSAGGSA [r15_770_JUSTAS] | 1.7 ± 0.067 kcal/mol
APARPPDWVLVDVPVDPTSGLITVHAGDATVTVDLPDGRPAVFYFPRSVSPSDLLAWVVGKARELAEALRAS [r1_25_TrMRF] | 1.9 ± 0.085 kcal/mol
SGMMNNTTITVTDSEPLPDGSVLTNALTFTSSSAGISSPLDLSLSKTPVSSSTTYTNNGVAPASISLNSLSA [r9_1113_JUSTAS] | 0.678 ± 0.019 kcal/mol
SAMEITETSLDSSTLYTFPGRRITITTTPDSYTITITLPDGTPVTLNFPPTMPLDEVKKKVIETLLASSSAG [r14_618_JUSTAS] | 0.935 ± 0.05 kcal/mol
SAGGNWPMRIKIEDPGEEKTIPIPITKVEPNPPPGKLMIFWPDGWVLTFDPKNWRIKKIEPMPDPDEMSAGG [r13_636_TrROS] | 0.942 ± 0.084 kcal/mol
SAPFQIKEITVNPKDGEAEINFPLENLPPPWMIHIFDKDKGKTQWIPPGGEIEIRAPEGPVKIMIFWRDSAG [r14_134_TrROS] | 1.27 ± 0.12 kcal/mol
SAGGSAAEETYESDGLTVTVRTERGPDGTVRVVVEVRDRDGPLLATLPFTFKAREDEGLSFSVPFPSAGGSA [r15_950_TrMRF] | 1.28 ± 0.036 kcal/mol
SEKRMEVEIKIPITMVVPKEMFEPDPDNGRYRFPDNGKPIRPNQVHPMPIEIKGPMPPGDAQKLLKDLLKSA [r9_165_TrROS] | -0.347 ± 0.1 kcal/mol
SAGGSAGGSATLTIDELRELLEKLGIDVEELSEEEIAELLKKLYPNARVERNENGELTIHPSAGGSAGGSAG [r3_375_TrROS_Hall] | 3.34 ± 0.096 kcal/mol
SAGGSAGGSASKNGKELEIKIKVDIYPFPGWGIVRVDYEIEYPDGKEQKFDLWIPVPPGDASAGGSAGGSAG [r3_330_TrROS] | 1.65 ± 0.11 kcal/mol
SAGGKSISFGKKAGKEKMKEAIKKGLKNIKIVVFKDGKPEVIEVKADDLDKVFDNIPEDSIVVFEPESAGGS [r16_636_TrMRF] | 1.28 ± 0.06 kcal/mol
SAGATLLEERELPDGSRVEVYREPDKLIVRVFSPDREVETRVFPLPPEPPLPVVPVVVDPARGRFVRLSAGG [r19_254_JUSTAS] | -0.621 ± 0.19 kcal/mol
SAPPDFKIKDVKVRRHPHKQEDGGKEKEFPMYHVNVRIEDPNGNKIPINFMMDDPEEMLRFARKLLKKLSAG [r14_36_TrROS] | 2.2 ± 0.14 kcal/mol
SAGGSAGGSAGPPNIKMEPETRTYVLPGGWAIRVSIMKIKPPDGKPLIMAMEEIIPPDDPSAGGSAGGSAGG [r17_312_TrROS] | 0.958 ± 0.1 kcal/mol
SAGGKIKLSPEALKALEEAIKKGDKNKTIFIELPDGSRIEVLPDGRIKVINKNGEEYELSEIKKIYPSAGGS [r16_664_TrROS_Hall] | 2.99 ± 0.2 kcal/mol
SAGGSAEIVIVESPQQVREAAEPENPDGPPVKVIPMTYEEAKNEIRELKKKGKPMKIVIVIDPGTPSAGGSA [r15_567_TrROS] | -0.547 ± 0.41 kcal/mol
SAGGSAGGSAAPEVTIKVTITYDPETNVLTIEAEATLPDGRKVRITARINKDGSIEIVSVEEVSAGGSAGGS [r12_1029_TrROS_Hall] | 4.63 ± 0.64 kcal/mol
SAGGSAGGSAGMEEIEIKFPENGKPLEIYRVPDGSAIIRNPGDGHYFQMDGNKIEIVGPLSAGGSAGGSAGG [r17_476_TrROS] | 0.861 ± 0.048 kcal/mol
SWIPVKEIAKYIAREFGMPKENLDNIEEVDPITVHPNPDGWVQVEATIRFRNPRNGKGHEMRIEIHVPKKSA [r9_230_TrROS] | 1.66 ± 0.024 kcal/mol
KGVVVGPDEPLVSDDGKLVVFPNAQITYDPKTGKPTIAFHVDPEALAQGDPEALKGLRDLAKELNIDELTPS [r1_438_TrMRF] | -0.156 ± 0.1 kcal/mol
SAGGSAPFKAELVSYDPETGVATFKLTLPDGSEVTVVATLDPDGVPHVKAYFPDGSVYDIEEILASSAGGSA [r15_832_TrMRF] | 2.28 ± 0.076 kcal/mol
